How the values were obtained:
Conditions in all cases: protein: recombinant; tags: His (pET32a); blunt
[1] = target: T1, MdMYB10-HIS (also printed MdMYB1-HIS) (Malus domestica? (apple), UniProt E2RZU2 1-243); test: EMSA; not stated (EMSA as described by Xie et al. [40])
T1 sequence: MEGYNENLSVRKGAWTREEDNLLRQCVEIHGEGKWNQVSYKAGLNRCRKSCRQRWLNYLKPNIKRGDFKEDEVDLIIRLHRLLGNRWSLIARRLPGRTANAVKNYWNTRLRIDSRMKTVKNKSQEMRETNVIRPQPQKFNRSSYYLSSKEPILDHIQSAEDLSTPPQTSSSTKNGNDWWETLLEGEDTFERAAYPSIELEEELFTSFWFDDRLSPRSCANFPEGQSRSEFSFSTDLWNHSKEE

[2] = target: T1, MdMYB10-HIS (also printed MdMYB1-HIS); test: competition; unlabeled MBS-1m against labeled MBS-1; no competition; not stated (EMSA as described by Xie et al. [40])
[3] = target: T1, MdMYB10-HIS (also printed MdMYB1-HIS); test: EMSA; shift seen; authors judge it non-specific; not stated (EMSA as described by Xie et al. [40])

B1: MdNRT2.4-1(MBS-1) (dsDNA)
DNA 1: TTATAGAGGGTTTTGAGTTGACCGTGTGAAGGGTTGTGAAGAGGC
DNA 2: GCCTCTTCACAACCCTTCACACGGTCAACTCAAAACCCTCTATAA
- binding result [1]: binds

B2: MdNRT2.4-1(MBS-1m) (dsDNA)
DNA 1: TTATAGAGGGTTTTGAGTTGATTGTGTGAAGGGTTGTGAAGAGGC
DNA 2: GCCTCTTCACAACCCTTCACACAATCAACTCAAAACCCTCTATAA
- binding result [2]: no binding

B3: MdNIA2-1(MRE) (dsDNA)
DNA 1: AAGATTTCAGTTTAACAATTAGGTTGATTAGGAACCGGAACCAAA
DNA 2: TTTGGTTCCGGTTCCTAATCAACCTAATTGTTAAACTGAAATCTT
- binding result [3]: binds
